For this experiment, the target named is T1, human CD11a (human) (UniProt P20701).
T1 sequence (looked up): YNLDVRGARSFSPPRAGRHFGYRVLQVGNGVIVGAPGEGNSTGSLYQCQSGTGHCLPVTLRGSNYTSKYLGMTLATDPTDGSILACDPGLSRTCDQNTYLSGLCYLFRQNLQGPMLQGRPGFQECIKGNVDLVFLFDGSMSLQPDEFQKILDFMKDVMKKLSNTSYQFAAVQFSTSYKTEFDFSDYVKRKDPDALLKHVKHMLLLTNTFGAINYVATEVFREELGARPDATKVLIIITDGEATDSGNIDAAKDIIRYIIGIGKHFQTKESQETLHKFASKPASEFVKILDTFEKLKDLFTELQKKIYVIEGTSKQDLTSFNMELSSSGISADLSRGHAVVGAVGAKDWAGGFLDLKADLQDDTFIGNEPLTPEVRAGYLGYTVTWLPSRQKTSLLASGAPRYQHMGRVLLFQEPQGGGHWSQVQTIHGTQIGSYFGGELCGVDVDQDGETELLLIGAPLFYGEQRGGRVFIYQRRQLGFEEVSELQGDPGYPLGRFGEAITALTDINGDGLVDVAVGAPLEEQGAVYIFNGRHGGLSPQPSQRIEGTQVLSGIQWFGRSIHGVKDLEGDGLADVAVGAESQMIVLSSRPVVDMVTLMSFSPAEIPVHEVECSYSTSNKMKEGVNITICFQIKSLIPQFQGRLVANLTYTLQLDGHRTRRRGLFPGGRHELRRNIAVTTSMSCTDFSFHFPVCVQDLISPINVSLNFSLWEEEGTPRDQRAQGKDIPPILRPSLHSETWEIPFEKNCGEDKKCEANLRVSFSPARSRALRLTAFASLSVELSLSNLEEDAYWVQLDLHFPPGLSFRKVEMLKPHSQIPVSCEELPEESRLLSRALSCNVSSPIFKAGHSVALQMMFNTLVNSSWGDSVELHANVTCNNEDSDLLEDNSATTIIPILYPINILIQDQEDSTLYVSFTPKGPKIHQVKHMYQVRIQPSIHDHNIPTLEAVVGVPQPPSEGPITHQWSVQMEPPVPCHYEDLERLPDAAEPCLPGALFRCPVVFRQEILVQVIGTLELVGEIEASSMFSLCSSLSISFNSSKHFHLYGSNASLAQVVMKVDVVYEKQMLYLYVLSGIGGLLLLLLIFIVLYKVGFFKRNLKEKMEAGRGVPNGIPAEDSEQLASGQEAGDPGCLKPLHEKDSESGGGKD
Put plainly: FACScan, Jurkat cells.

This note sets out measurements from EP1516629B1.

B1: L2 variant IgG1 (antibody, V domains shown)
VH: EVQLVESGGGLVQPGGSLRLSCAASGYSFTGHWMNWVRQAPGKGLEWVGMIHPSDSETRYNQKFKDRFTISVDKSKNTLYLQMNSLRAEDTAVYYCARGIYFYGTTYFDYWGQGTLVTVSS
VL: DIQMTQSPSSLSASVGDRVTITCRASKTISKYLAWYQQKPGKAPKLLIYAGAALQSGVPSRFSGSGSGTDFTLTISSLQPEDFATYYCQQHNEYPLTFGQGTKVEIKR
With B1, the Var.EC50/HuIgG1 EC50 was found to be 1.1.

B2: AspH54Glu variant IgG1 (antibody, V domains shown)
VH: EVQLVESGGGLVQPGGSLRLSCAASGYSFTGHWMNWVRQAPGKGLEWVGMIHPSESETRYNQKFKDRFTISVDKSKNTLYLQMNSLRAEDTAVYYCARGIYFYGTTYFDYWGQGTLVTVSS
VL: DIQMTQSPSSLSASVGDRVTITCRASKTISKYLAWYQQKPGKAPKLLIYSGSTLQSGVPSRFSGSGSGTDFTLTISSLQPEDFATYYCQQHNEYPLTFGQGTKVEIK
In turn, B2 registered a Variant EC50/HulgG1 EC50 of 16.

B3: humanized MHM24 F(ab)-3 (Fab, V domains shown)
VH: EVQLVESGGGLVQPGGSLRLSCAASGFSFTGHWMNWVRQAPGKGLEWVGMIHPSDSETRYNQKFKDRATISVDNSKNTLYLQMNSLRAEDTAVYYCARGIYFYGTTYFDYWGQGTLVTVSS
VL: DIQMTQSPSSLSASVGDRVTITCRASKTISKYLAWYQQKPGKAPKLLIYSGSSLESGVPSRFSGSGSGTDFTLTISSLQPEDFATYYCQQHNEYPLTFGQGTKVEIK
Consider B3, for which the EC50 F(ab)/EC50 F(ab)-2 worked out at 1.2.

B4: H3B variant IgG1 (antibody, V domains shown)
VH: EVQLVESGGGLVQPGGSLRLSCAASGYSFTGHWMNWVRQAPGKGLEWVGMIHPSDSETRYNQKFKDRFTISVDKSKNTLYLQMNSLRAEDTAVYYCARGIYFYGAAAFDYWGQGTLVTVSS
VL: DIQMTQSPSSLSASVGDRVTITCRASKTISKYLAWYQQKPGKAPKLLIYSGSTLQSGVPSRFSGSGSGTDFTLTISSLQPEDFATYYCQQHNEYPLTFGQGTKVEIK
Consider B4, for which the Var.EC50/HuIgG1 EC50 stood at 34.7.

B5: SerH55Asn variant IgG1 (antibody, V domains shown)
VH: EVQLVESGGGLVQPGGSLRLSCAASGYSFTGHWMNWVRQAPGKGLEWVGMIHPSDNETRYNQKFKDRFTISVDKSKNTLYLQMNSLRAEDTAVYYCARGIYFYGTTYFDYWGQGTLVTVSS
VL: DIQMTQSPSSLSASVGDRVTITCRASKTISKYLAWYQQKPGKAPKLLIYSGSTLQSGVPSRFSGSGSGTDFTLTISSLQPEDFATYYCQQHNEYPLTFGQGTKVEIK
B5 registered a Var.EC50/HuIgG1 EC50 of 2.1.

B6: HisH32Ala variant IgG1 (antibody, V domains shown)
VH: EVQLVESGGGLVQPGGSLRLSCAASGYSFTGAWMNWVRQAPGKGLEWVGMIHPSDSETRYNQKFKDRFTISVDKSKNTLYLQMNSLRAEDTAVYYCARGIYFYGTTYFDYWGQGTLVTVSS
VL: DIQMTQSPSSLSASVGDRVTITCRASKTISKYLAWYQQKPGKAPKLLIYSGSTLQSGVPSRFSGSGSGTDFTLTISSLQPEDFATYYCQQHNEYPLTFGQGTKVEIK
B6 registered a Var.EC50/HuIgG1 EC50 of 2.3.

B7: TyrH99Ala variant IgG1 (antibody, V domains shown)
VH: EVQLVESGGGLVQPGGSLRLSCAASGYSFTGHWMNWVRQAPGKGLEWVGMIHPSDSETRYNQKFKDRFTISVDKSKNTLYLQMNSLRAEDTAVYYCARGIYFAGTTYFDYWGQGTLVTVSS
VL: DIQMTQSPSSLSASVGDRVTITCRASKTISKYLAWYQQKPGKAPKLLIYSGSTLQSGVPSRFSGSGSGTDFTLTISSLQPEDFATYYCQQHNEYPLTFGQGTKVEIK
Molecule B7 registered a Var.EC50/HuIgG1 EC50 of 1.4.

B8: LysH73Ala variant IgG1 (antibody, V domains shown)
VH: EVQLVESGGGLVQPGGSLRLSCAASGYSFTGHWMNWVRQAPGKGLEWVGMIHPSDSETRYNQKFKDRFTISVDASKNTLYLQMNSLRAEDTAVYYCARGIYFYGTTYFDYWGQGTLVTVSS
VL: DIQMTQSPSSLSASVGDRVTITCRASKTISKYLAWYQQKPGKAPKLLIYSGSTLQSGVPSRFSGSGSGTDFTLTISSLQPEDFATYYCQQHNEYPLTFGQGTKVEIK
The molecule B8 gave a Var.EC50/HuIgG1 EC50 of 5.2.

B9: H1 variant IgG1 (antibody, V domains shown)
VH: EVQLVESGGGLVQPGGSLRLSCAASGYAFAGAWMNWVRQAPGKGLEWVGMIHPSDSETRYNQKFKDRFTISVDKSKNTLYLQMNSLRAEDTAVYYCARGIYFYGTTYFDYWGQGTLVTVSS
VL: DIQMTQSPSSLSASVGDRVTITCRASKTISKYLAWYQQKPGKAPKLLIYSGSTLQSGVPSRFSGSGSGTDFTLTISSLQPEDFATYYCQQHNEYPLTFGQGTKVEIK
Consider B9, for which the Var.EC50/HuIgG1 EC50 was found to be 5.9.

B10: TyrL94Ala variant IgG1 (antibody, V domains shown)
VH: EVQLVESGGGLVQPGGSLRLSCAASGYSFTGHWMNWVRQAPGKGLEWVGMIHPSDSETRYNQKFKDRFTISVDKSKNTLYLQMNSLRAEDTAVYYCARGIYFYGTTYFDYWGQGTLVTVSS
VL: DIQMTQSPSSLSASVGDRVTITCRASKTISKYLAWYQQKPGKAPKLLIYSGSTLQSGVPSRFSGSGSGTDFTLTISSLQPEDFATYYCQQHNEAPLTFGQGTKVEIKR
As for B10, the Var.EC50/HuIgG1 EC50 was 11.8.

B11: humanized MHM24 F(ab)-4 (Fab, V domains shown)
VH: EVQLVESGGGLVQPGGSLRLSCAASGFSFTGHWMNWVRQAPGKGLEWVGMIHPSDSETRYNQKFKDRFTISRDNSKNTLYLQMNSLRAEDTAVYYCARGIYFYGTTYFDYWGQGTLVTVSS
VL: DIQMTQSPSSLSASVGDRVTITCRASKTISKYLAWYQQKPGKAPKLLIYSGSSLESGVPSRFSGSGSGTDFTLTISSLQPEDFATYYCQQHNEYPLTFGQGTKVEIK
For B11, the EC50 F(ab)/EC50 F(ab)-2 is 2.9 and the fold reduction in binding against F(ab)-2 was determined as 3 fold.

B12: H2C11 variant IgG1 (antibody, V domains shown)
VH: EVQLVESGGGLVQPGGSLRLSCAASGYSFTGHWMNWVRQAPGKGLEWVGMIAPASSNTRYNQKFKDRFTISVDKSKNTLYLQMNSLRAEDTAVYYCARGIYFYGTTYFDYWGQGTLVTVSS
VL: DIQMTQSPSSLSASVGDRVTITCRASKTISKYLAWYQQKPGKAPKLLIYSGSTLQSGVPSRFSGSGSGTDFTLTISSLQPEDFATYYCQQHNEYPLTFGQGTKVEIK
In turn, B12 registered a Var.EC50/HuIgG1 EC50 of 24.9.

B13: HisH52Ser variant IgG1 (antibody, V domains shown)
VH: EVQLVESGGGLVQPGGSLRLSCAASGYSFTGHWMNWVRQAPGKGLEWVGMISPSDSETRYNQKFKDRFTISVDKSKNTLYLQMNSLRAEDTAVYYCARGIYFYGTTYFDYWGQGTLVTVSS
VL: DIQMTQSPSSLSASVGDRVTITCRASKTISKYLAWYQQKPGKAPKLLIYSGSTLQSGVPSRFSGSGSGTDFTLTISSLQPEDFATYYCQQHNEYPLTFGQGTKVEIK
B13 returned a Var.EC50/HuIgG1 EC50 of 5.

B14: SerH28Ala variant IgG1 (antibody, V domains shown)
VH: EVQLVESGGGLVQPGGSLRLSCAASGYAFTGHWMNWVRQAPGKGLEWVGMIHPSDSETRYNQKFKDRFTISVDKSKNTLYLQMNSLRAEDTAVYYCARGIYFYGTTYFDYWGQGTLVTVSS
VL: DIQMTQSPSSLSASVGDRVTITCRASKTISKYLAWYQQKPGKAPKLLIYSGSTLQSGVPSRFSGSGSGTDFTLTISSLQPEDFATYYCQQHNEYPLTFGQGTKVEIK
On to B14, for which the Var.EC50/HuIgG1 EC50 is 6.9.

B15: TyrH97Ala variant IgG1 (antibody, V domains shown)
VH: EVQLVESGGGLVQPGGSLRLSCAASGYSFTGHWMNWVRQAPGKGLEWVGMIHPSDSETRYNQKFKDRFTISVDKSKNTLYLQMNSLRAEDTAVYYCARGIAFYGTTYFDYWGQGTLVTVSS
VL: DIQMTQSPSSLSASVGDRVTITCRASKTISKYLAWYQQKPGKAPKLLIYSGSTLQSGVPSRFSGSGSGTDFTLTISSLQPEDFATYYCQQHNEYPLTFGQGTKVEIK
As to B15, the Var.EC50/HuIgG1 EC50 is 10.9.

B16: humanized MHM24 F(ab)-8 (Fab, V domains shown)
VH: EVQLVESGGGLVQPGGSLRLSCAASGYSFTGHWMNWVRQAPGKGLEWVGMIHPSDSETRYNQKFKDRFTISVDKSKNTLYLQMNSLRAEDTAVYYCARGIYFYGTTYFDYWGQGTLVTVSS
VL: DIQMTQSPSSLSASVGDRVTITCRASKTISKYLAWYQQKPGKAPKLLIYSGSTLQSGVPSRFSGSGSGTDFTLTISSLQPEDFATYYCQQHNEYPLTFGQGTKVEIKR
For B16, the EC50 F(ab)/EC50 F(ab)-2 turned out to be 0.004.

B17: humanized MHM24 F(ab)-5 (Fab, V domains shown)
VH: EVQLVESGGGLVQPGGSLRLSCAASGFSFTGHWMNWVRQAPGKGLEWVGMIHPSDSETRYNQKFKDRFTISVDKSSSTLYLQMNSLRAEDTAVYYCARGIYFYGTTYFDYWGQGTLVTVSS
VL: DIQMTQSPSSLSASVGDRVTITCRASKTISKYLAWYQQKPGKAPKLLIYSGSSLESGVPSRFSGSGSGTDFTLTISSLQPEDFATYYCQQHNEYPLTFGQGTKVEIK
As for B17, the EC50 F(ab)/EC50 F(ab)-2 came out at 0.043 and the fold improvement in binding over F(ab)-2 is 23 fold.
